This is an account of results in publication PMC2981644 (Journal of molecular biology, 2010).

The labels stand for the following.
B3: clathrin TD, N-terminal domain of the clathrin heavy chain (aa 1-363) (domain or fragment, UniProt P49951 1-363, looked up)
chain: MAQILPIRFQEHLQLQNLGINPANIGFSTLTMESDKFICIREKVGEQAQVVIIDMNDPSNPIRRPISADSAIMNPASKVIALKAGKTLQIFNIEMKSKMKAHTMTDDVTFWKWISLNTVALVTDNAVYHWSMEGESQPVKMFDRHSSLAGCQIINYRTDAKQKWLLLTGISAQQNRVVGAMQLYSVDRKVSQPIEGHAASFAQFKMEGNAEESTLFCFAVRGQAGGKLHIIEVGTPPTGNQPFPKKAVDVFFPPEAQNDFPVAMQISEKHDVVFLITKYGYIHLYDLETGTCIYMNRISGETIFVTAPHEATAGIIGVNRKGQVLSVCVEEENIIPYITNVLQNPDLALRMAVRNNLAGAEEL

No end group written: not given here. Alexa 488 = Alexa Fluor 488 dye

Test [1] concerns the target B3. Description: AUC.
In test [2] the target is AP180 M5 (aa 623-680), wild type, middle segment of the AP180 C-terminal domain (UniProt Q05140-2 623-680). Description: NMR titration.
Test [3] deals with AP180 M5 site 2 (single-site AP180 M5, residues 639-642 mutated to alanines; binding site 1 mutated), Q05140. Kind of test: NMR titration.
The target in test [4] is AP180 M5 site 1 (single-site AP180 M5, residues 667-668 mutated to alanines; binding site 2 mutated), Q05140. Description: NMR titration.
Test [5] deals with T1, Clathrin heavy chain terminal domain (Rattus norvegicus, UniProt P11442).
T1 chain: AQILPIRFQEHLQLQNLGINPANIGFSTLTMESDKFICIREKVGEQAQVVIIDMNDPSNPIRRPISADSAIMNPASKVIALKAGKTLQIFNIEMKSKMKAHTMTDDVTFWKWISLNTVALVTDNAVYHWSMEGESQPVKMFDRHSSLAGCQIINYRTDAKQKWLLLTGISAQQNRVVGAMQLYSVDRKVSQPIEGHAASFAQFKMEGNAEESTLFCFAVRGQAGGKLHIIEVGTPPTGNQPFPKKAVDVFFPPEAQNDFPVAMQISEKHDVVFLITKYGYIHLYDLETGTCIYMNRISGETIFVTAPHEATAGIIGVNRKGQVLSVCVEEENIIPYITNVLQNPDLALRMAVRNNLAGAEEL
Kind of test: NMR.

B1: AP180 M5 site 1 (residues 667-668 to alanines), fluorescently labelled for AUC (domain or fragment)
chain: {Alexa 488}-ASTASPAK(Alexa 488)AESSGVIDLFGDAFGSGASETQPAPQAVSSSSASADAAAGFGGSFMAPST
For orientation: Kd means a measure of binding affinity in units of concentration. Read a high Kd as lower affinity. B1 gave an equilibrium dissociation constant (Kd) in test [1] of 251 ± 3 µM.

B2: AP180 M5 site 2 (residues 639-642 to alanines), fluorescently labelled for AUC (domain or fragment)
chain: {Alexa 488}-ASTASPAK(Alexa 488)AESSGVIDAAAAAFGSGASETQPAPQAVSSSSASADLLAGFGGSFMAPST
As for B2, the equilibrium dissociation constant (Kd) in test [1] was determined as 253 ± 8 µM.

As for B3, in test [2], the “KD of binding site 1” value was determined as 160 ± 23 µM and the “KD of binding site 2” value came out at 224 ± 48 µM. In test [3], this molecule yielded a dissociation constant Kd of 246 µM. This molecule displayed a dissociation constant Kd in test [4] of 168 µM.

B4: Alexa488-AP180 M5 (aa 623-680), wild type, fluorescently labelled (domain or fragment)
chain: {Alexa 488}-ASTASPAK(Alexa 488)AESSGVIDLFGDAFGSGASETQPAPQAVSSSSASADLLAGFGGSFMAPST
B4 had a Kd in test [1] of 173 ± 11 µM.

Take TAVDAFAAPSPASTASPAKA [AP180 M5 fragment, binding site 1]: the Kd in test [5] was determined as 160 µM.
